Tested on: T1, human BLNK-1 (B cell LINKER PROTEIN, 70,000 Mr protein)
T1 sequence: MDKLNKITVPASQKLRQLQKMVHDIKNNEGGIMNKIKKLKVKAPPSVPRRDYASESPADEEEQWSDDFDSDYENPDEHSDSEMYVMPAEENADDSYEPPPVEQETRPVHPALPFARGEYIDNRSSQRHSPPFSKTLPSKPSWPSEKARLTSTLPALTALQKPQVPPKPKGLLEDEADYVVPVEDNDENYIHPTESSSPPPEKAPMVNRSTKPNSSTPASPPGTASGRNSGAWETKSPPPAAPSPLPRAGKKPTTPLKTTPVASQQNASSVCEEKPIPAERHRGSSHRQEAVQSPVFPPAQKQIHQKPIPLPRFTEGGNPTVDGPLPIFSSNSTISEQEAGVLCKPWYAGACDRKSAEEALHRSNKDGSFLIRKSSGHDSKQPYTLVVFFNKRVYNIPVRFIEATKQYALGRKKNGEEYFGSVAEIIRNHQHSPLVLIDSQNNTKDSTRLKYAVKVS

In the case of Syk protein tyrosine kinase, the “tyrosine phosphorylation of BLNK” value is reported as “Syk can phosphorylate BLNK when co-expressed in insect cells, and in vitro”.

From patent US6638724
